Where no end group is shown, it is not given here.
Key:
SGLT2 = conditions: cited from earlier work
Description: DM patients have a high mortality rate, mainly due to DM-related heart and/or kidney failure ([35], [43]). Pathologically, heart dysfunction exacerbates kidney damage, while renal injury negatively affects cardiac function. […] To reduce diabetic complications in tissues and organs, particularly in the heart and kidney, great effort has been made to develop effective medicines and therapeutics for DM. Among these, much attention ...

db/m mice = assay: Peptide 2 or control peptide administration for 8 weeks in nondiabetic db/m mice; type: in vivo, mouse; conditions: for Heart rate during echocardiography: db/m mice, isoflurane anesthesia, average ± SD, n= 7
RhoA = assay: Pull-down assay for GTP-bound active RhoA in HUVECs; type: cell-based, human; conditions: presence of PKC inhibitor vs DMSO
Procedure: These experiments were performed as described previously with some modifications ([70]). Briefly, total cell lysates were obtained using the RIPA lysis buffer (50 mmol/l Tris-HCl [pH 7.5], 150 mmol/l NaCl, 0.5% deoxycholate sodium, 0.1% SDS, 1% Nonidet P-40, and 100 mM PMSF). The samples were separated by SDS-PAGE and blotted on a polyvinylidene difluoride membrane. The membrane was sequentially incubated with primary Ab and horseradish peroxidase (HRP)-labeled secondary Ab, followed by treatment with HRP substrate (Luminata Forte, Millipore Corp). The target protein band was observed using the luminescent image analyzer LAS-4000 (Fujifilm Life Science). The pull-down assay was performed as described previously with some modifications ([71]). Briefly, the cell lysates were incubated with glutathione S-transferase-fused mDia Rho-binding domain and glutathione-sepharose beads (GE Healthcare) at 2 °C to collect active GTP-bound RhoA.

[1] = tested on: U937 macrophage-like cells on a monolayer of HUVECs; assay: Transmigration assay of U937 cells across a HUVEC monolayer (Transwell); type: cell-based, human; conditions: presence of PKC inhibitor vs DMSO
Procedure: The upper inserts (5.0 μm pore size) of Chemotaxicells (Kurabo Industries, Ltd) were coated with 100 μg fibronectin (Sigma-Aldrich). HUVECs were seeded on the insert and cultured for 48 h to form an endothelial monolayer. […] The number of U937 cells that migrated into the lower wells was counted using the Counting chamber (ERMA Inc).

db/db mice [2] = conditions: mouse, in vivo, iv
Procedure: We examined the in vivo cytotoxicity of Peptide 2 by intravenous injection of this peptide (0.5 μg/g body weight) into mice.
Following euthanasia of the mice by cervical dislocation, they were perfused with PBS, and the heart and kidney were extracted. The extracted organs were snap-frozen in liquid nitrogen within a block of water-soluble medium (Surgipath FSC 22, Leica Biosystems) or fixed with 4% paraformaldehyde and subsequently embedded in paraffin blocks. Regarding the frozen samples, they were sectioned in 10 μm thick using a cryostat (Leica Biosystems), fixed with 4% paraformaldehyde on top of poly-L-lysine-coated slides, permeabilized with 0.1% Triton X-100, and blocked with 1% bovine serum albumin (BSA). Primary antibodies (Abs) (see below) were applied in the BSA blocking solution at 4 °C overnight, followed by 1 h incubation at room temperature with fluorescent dye-labeled secondary Abs. Paraffin sections, 4 μm thick, were stained with H-E, WGA (1:500 dilution) (Thermo Fisher Scientific) or Sirius red (1:1000 dilution) (Fujifilm Wako Pure Chemical Corporation) using standard techniques. Confocal images were taken using a Leica SP8 microscope (Leica Microsystems). […] As described previously ([68]), at least three random fields were selected from the four sections in each heart to quantify the extent of fibrotic or immunopositive area using ImageJ software.

C3a receptor (C3aR) = biological target: T1, C3a receptor (C3aR) (Homo sapiens, UniProt Q16581); assay: Cell surface attachment of FITC-Peptide 2 on HUVECs through C3aR; type: binding; conditions: C3aR-knockdown (siC3aR #2) vs scramble RNA-transfected HUVECs; 2 h at 4 °C
T1 construct: host or cells: HUVECs
T1 sequence (Q16581 1-482): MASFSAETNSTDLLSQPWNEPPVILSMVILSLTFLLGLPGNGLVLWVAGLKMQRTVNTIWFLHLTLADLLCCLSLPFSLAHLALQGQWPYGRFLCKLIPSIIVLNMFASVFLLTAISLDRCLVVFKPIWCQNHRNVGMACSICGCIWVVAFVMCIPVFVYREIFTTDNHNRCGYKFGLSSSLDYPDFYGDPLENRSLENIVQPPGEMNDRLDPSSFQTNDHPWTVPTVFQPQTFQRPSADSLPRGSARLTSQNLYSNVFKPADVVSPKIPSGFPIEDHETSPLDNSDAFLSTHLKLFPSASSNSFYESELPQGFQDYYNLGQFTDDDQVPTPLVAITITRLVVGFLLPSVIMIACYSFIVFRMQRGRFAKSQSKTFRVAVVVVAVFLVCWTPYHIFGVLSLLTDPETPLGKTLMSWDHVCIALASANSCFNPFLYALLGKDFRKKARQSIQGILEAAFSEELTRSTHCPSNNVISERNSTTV
Procedure: The expression level of C3a receptor 1 (C3aR) was evaluated by semiquantitative PCR. mRNA was extracted using TRIzol RNA isolation reagent (Thermo Fisher Scientific), and cDNA was synthesized using ReverTra Ace (Toyobo). PCR was performed using rTaq DNA polymerase (TaKaRa Bio Inc). The band densities of PCR products were quantified using the ImageJ software. The mRNA expression level of C3aR was adjusted to that of β-actin as an internal control. Primer sequences for the experiments were as follows: C3aR forward 5′-[…]-3′ and reverse 5′-[…]-3′; β-actin forward 5′-[…]-3′ and reverse 5′-[…]-3′. To silence C3aR expression in HUVECs, siRNA against C3aR (#1: 5′-[…]-3′, #2: 5′-[…]-3′) was transfected into the cells with RNAiMAX (Thermo Fisher Scientific), and the cells were cultured for 2 days.
FITC-conjugated Peptide 2 was generated by Biologica Co. HUVECs, in which C3aR was or was not knocked down, were incubated with the indicated concentrations of FITC-Peptide 2 for 2 h at 4 °C. Subsequently, the cells were washed with PBS three times and labeled with tetramethylrhodamine-WGA (Thermo Fisher Scientific). Following fixation with 4% paraformaldehyde, the attached peptides on the cell surface were observed using a Leica SP8 microscope (Leica Microsystems).

[3] = tested on: AngII-stimulated hypertensive mice; conditions: AngII-stimulated hypertensive vs normotensive mice; cited from earlier work
db/db mice [4] = tested on: db/db mice
[5] = nondiabetic db/m mice, 8-week administration
[6] = DPPIII 10 μg/g iv, after 8 weeks
[7] = DPPIII 10 μg/g iv, after 8 weeks, vs PBS

Cc1ccc([C@@H]2O[C@H](CO)[C@@H](O)[C@H](O)[C@H]2O)cc1Cc1ccc(-c2ccc(F)cc2)s1 [canagliflozin]
Heart failure and DKD in DM patients (SGLT2): improves heart failure and DKD

IAFSQYLQK [control peptide, reference compound]
Heart rate during echocardiography (db/m mice; week 0): 410 ± 30
Heart rate during echocardiography (db/m mice; week 4): 423 ± 32
Heart rate during echocardiography (db/m mice; week 8): 407 ± 30

Cn1c2ccccc2c2c3c(c4c5ccccc5n(CCC#N)c4c21)CNC3=O [PKC inhibitor, Gö6976]
Effect on Peptide-2-induced RhoA activation (RhoA): inhibited in the presence of PKC inhibitor
Effect on Peptide-2-induced U937 transendothelial migration [1]: inhibited in the presence of PKC inhibitor

RLLWENGNL [Peptide 2]
Desmin deposition and microvasculature disruption in the glomeruli (db/db mice [2]): highly enhanced
Heart rate during echocardiography (db/m mice; week 0): 417 ± 32
Heart rate during echocardiography (db/m mice; week 4): 402 ± 41
Heart rate during echocardiography (db/m mice; week 8): 414 ± 42
Body weight, blood glucose level, or hemodynamics (db/m mice; [5]): did not affect
Deteriorative effects on the organs (heart and kidney) (db/m mice; [5]): not observed in db/m mice

FITC-Peptide 2: fluorescein isothiocyanate (FITC)-conjugated Peptide 2 (RLLWENGNL; also: FITC-conjugated, position not given here)
FITC-Peptide 2 attachment on the cells (fluorescence microscopy) (C3a receptor (C3aR)): significantly reduced in C3aR-knockdown HUVECs

B1: dipeptidyl peptidase III (protein, UniProt Q9NY33 2-737, looked up)
Dipeptidyl peptidase 3: ADTQYILPNDIGVSSLDCREAFRLLSPTERLYAYHLSRAAWYGGLAVLLQTSPEAPYIYALLSRLFRAQDPDQLRQHALAEGLTEEEYQAFLVYAAGVYSNMGNYKSFGDTKFVPNLPKEKLERVILGSEAAQQHPEEVRGLWQTCGELMFSLEPRLRHLGLGKEGITTYFSGNCTMEDAKLAQDFLDSQNLSAYNTRLFKEVDGEGKPYYEVRLASVLGSEPSLDSEVTSKLKSYEFRGSPFQVTRGDYAPILQKVVEQLEKAKAYAANSHQGQMLAQYIESFTQGSIEAHKRGSRFWIQDKGPIVESYIGFIESYRDPFGSRGEFEGFVAVVNKAMSAKFERLVASAEQLLKELPWPPTFEKDKFLTPDFTSLDVLTFAGSGIPAGINIPNYDDLRQTEGFKNVSLGNVLAVAYATQREKLTFLEEDDKDLYILWKGPSFDVQVGLHELLGHGSGKLFVQDEKGAFNFDQETVINPETGEQIQSWYRSGETWDSKFSTIASSYEECRAESVGLYLCLHPQVLEIFGFEGADAEDVIYVNWLNMVRAGLLALEFYTPEAFNWRQAHMQARFVILRVLLEAGEGLVTITPTTGSDGRPDARVRLDRSKIRSVGKPALERFLRRLQVLKSTGDVAGGRALYEGYATVTDAPPECFLTLRDTVLLRKESRKLIVQPNTRLEGSDVQLLEYEASAAGLIRSFSERFPEDGPELEEILTQLATADARFWKGPSEAPSGQA
notes: aminopeptidase that cleaves specific dipeptides from the N terminus of relatively small peptides
Blood-pressure-lowering effect [3]: BP-lowering effects were observed specifically in AngII-stimulated hypertensive mice, but not in normotensive mice
Body weight and blood glucose level (increase during the experimental period) (db/db mice [4]; DPPIII 10 μg/g body weight iv three times weekly for 8 weeks, vs PBS): unaffected by DPPIII treatment
Left ventricular dimensions and systolic functions (echocardiography) (db/db mice [4]; DPPIII 10 μg/g iv, 8 weeks): not significantly changed
Urine albumin excretion (albuminuria) (db/db mice [4]; DPPIII 10 μg/g iv, 8 weeks, 24 h urine, SDS-PAGE, Coomassie staining): the increase was blocked by DPPIII treatment
Cardiac diastolic functions (pulse-wave and tissue Doppler echocardiography) (db/db mice [4]; DPPIII 10 μg/g iv, 8 weeks, vs PBS): improved the impaired diastolic functions
Desmin deposition in the glomeruli (db/db mice [4]; [6]): almost totally reversed by DPPIII treatment
Disruption of glomerular microvasculature (CD31 staining) (db/db mice [4]; [6]): recovered
Morphology and size of cardiomyocytes (H-E and WGA staining) (db/db mice [4]; [6]): unchanged by DPPIII treatment
Plasma cholesterol or triglyceride levels (db/db mice [4]; [6]): no effects
Podocyte foot process damage (electron microscopy) (db/db mice [4]; [6]): ameliorated by DPPIII treatment
Cardiac fibrosis (Sirius red staining) (db/db mice [4]; [7]): reduced by DPPIII treatment
Infiltration of CD68-positive inflammatory cells in the heart (db/db mice [4]; [7]): reversed
Plasma concentration of Peptide 2 (SRM) (db/db mice [4]; after 8-week DPPIII administration, vs PBS-infused db/db mice): clearly reduced

— article PMC8167299, “Cardio- and reno-protective effects of dipeptidyl peptidase III in diabetic mice” (The Journal of Biological Chemistry, 2021)
